Experiments:
[1] = biological target: the molecule itself; assay: cross-linking
[2] = substrate: N[C@@H](CCS)C(=O)O; assay: cystathionine production by LC-MS/MS, non-linear fit; format: biochemical, Caenorhabditis elegans; conditions: co-substrate serine, 100 mM Bis/Tris pH 8.0, 25 °C
[3] = substrate: N[C@@H](CO)C(=O)O; assay: as above; format: biochemical, Caenorhabditis elegans; conditions: co-substrate homocysteine, 100 mM Bis/Tris pH 8.0, 25 °C

Protein	stoichiometry N [1]	Km [2]	kcat [2]	kcat/Km [2]	Km [3]	kcat [3]	kcat/Km [3]
human 45CBS (C-terminally truncated human cystathionine β-synthase, residues 1-413) (domain or fragment, UniProt P35520 1-413, looked up) MPSETPQAEVGPTGCPHRSGPHSAKGSLEKGSPEDKEAKEPLWIRPDAPSRCTWQLGRPASESPHHHTAPAKSPKILPDILKKIGDTPMVRINKIGKKFGLKCELLAKCEFFNAGGSVKDRISLRMIEDAERDGTLKPGDTIIEPTSGNTGIGLALAAAVRGYRCIIVMPEKMSSEKVDVLRALGAEIVRTPTNARFDSPESHVGVAWRLKNEIPNSHILDQYRNASNPLAHYDTTADEILQQCDGKLDMLVASVGTGGTITGIARKLKEKCPGCRIIGVDPEGSILAEPEELNQTEQTTYEVEGIGYDFIPTVLDRTVVDKWFKSNDEEAFTFARMLIAQEGLLCGGSAGSTVAVAVKAAQELQEGQRCVVILPDSVRNYMTKFLSDRWMLQKGFLKEEDLTEKKPWWWHLR	2	–	–	–	–	–	–
CBS-1 (Caenorhabditis elegans) (protein) MIQNEVSATHGSTKKGITYNTILEAAQRPTPLVPLKKLKVEHQLQSDIYVKLEYLNIAGSLEDRTADKAFQFAEEIGVVRGDEVFVTAGGSAAISYATVAAVKGIKLTIYAPKGEFDLVDTVLHTLGVKTVELPFGTFAEARVQTDEAAQQKGVFSLNKFTTNAAFVANLQKTALEIEKAVNNKSIGKVGAVVIPLNTGAAAAGIAAYYKGIGEHGVRVVGVTCKKDTIPEMGLDLKNDLLQEYNVEKREVEEDEAYSFTRHLIGTEGIMAGPSSGAAVLEAIKLAKELPAGSTIVVVLMDGIRNYLRHFLDDDWITANKKDVVTRKDGPQPNSIYDPKVLVYDPTKLAGEWTQDPETKSWSHSEVEFNKFNPERPLVLDTVLDAIGKTPLVKLQHIPKAHGVKCNVYVKCEYMNAGGSTKDRIAKRMVEIAEKTGKPGKLVPGVTLIEPTSGNTGIGLSLASAVRGYKCIITMPKKMSKEKSIAMASLGSTIIRTPNEAGFDSPHSHIGVALRLKSEIQDAVVLDQYCNPGNPLAHYEETAEEIIYDMGDKHIDLVVLTAGTGGTVTGISRKIHERIPTAKVVGVDPHGSILAGPAETDIDFYEVEGIGYDFLPGTLDTSAIDYWAKSHDKESFLMARELIRSEGILCGGSSGCAVHYALEECKSLNLPAEANVVVLLPDGIRNYITKFLDDDWMNERHFLDA	–	4.29 ± 0.97 mM	43.3 ± 4.33 s⁻¹	10000 M⁻¹ s⁻¹	5.57 ± 0.68 mM	48.1 ± 2.95 s⁻¹	8500 M⁻¹ s⁻¹

From paper PMC3316156 (Biochemical Journal, 2012)
